This is an account of results in US20210115130A1 (Innovent, published 2021).

For experiment [1], the target named is cynomolgus monkey IL23 protein (cynomolgus IL12p40 - linker - cynomolgus IL23p19 - His tag) (cynomolgus monkey). The experiment is described as follows: ForteBio BLI, antibody on AHQ sensor, 1:1 model. On the procedure: (§1) The ForteBio affinity assay was performed according to the prior art (Estep, P, et al., High throughput solution based measurement of antibody-antigen affinity and epitope binning MAbs, 2013.5(2): p. 270-8). Briefly, the sensor was equilibrated offline in an assay buffer for […], and was equilibrated online for 60 s to establish a baseline. The purified antibodies obtained as described above were loaded online onto an AHQ sensor (ForteBio) for the ForteBio affinity assay. The sensor with the loaded antibodies was then exposed to 100 nM […] antigens for […] before transferring the sensor to the assay buffer for […] of dissociation to measure the dissociation rate. The kinetic analysis was performed using a 1:1 binding model.
Background: Biolayer interferometry detects binding as a change in optical thickness at a sensor tip.

The target of experiment [2] is T1, human IL23 protein (human IL12p40 - linker - human IL23p19 - His tag) (human, UniProt P29460 23-328; Q9NPF7 21-189).
T1 construct: range 23-328;range 21-189; Single-chain fusion expressed in Expi293 cells; also called IL-23 antigen
T1 sequence: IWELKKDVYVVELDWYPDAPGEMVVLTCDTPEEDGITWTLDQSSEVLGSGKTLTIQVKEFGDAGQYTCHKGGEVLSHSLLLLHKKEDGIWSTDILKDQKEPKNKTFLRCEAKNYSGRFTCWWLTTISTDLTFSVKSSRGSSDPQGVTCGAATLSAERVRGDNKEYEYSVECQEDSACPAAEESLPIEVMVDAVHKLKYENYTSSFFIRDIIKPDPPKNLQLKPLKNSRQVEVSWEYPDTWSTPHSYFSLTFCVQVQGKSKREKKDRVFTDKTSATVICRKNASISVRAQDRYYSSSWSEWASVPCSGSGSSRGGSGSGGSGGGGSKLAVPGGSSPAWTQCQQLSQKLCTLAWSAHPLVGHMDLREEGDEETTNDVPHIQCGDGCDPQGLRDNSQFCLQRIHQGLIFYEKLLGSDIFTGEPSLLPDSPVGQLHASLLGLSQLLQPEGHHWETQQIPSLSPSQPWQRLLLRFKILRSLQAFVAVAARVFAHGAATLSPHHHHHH
The experiment in a line: ForteBio BLI, antibody on AHQ sensor, 1:1 model. On the procedure:
The equilibrium dissociation constant (KD) of the above 17D1 humanized antibody and 17D1-YTE of the present invention to human IL-23p19 was measured by biological optical interferometry (ForteBio).
as §1

Experiment [3] deals with T2, IL-23 (R&D Systems, Catalog No. 1290-IL-500/CF) (UniProt Q9NPF7 20-189; P29460 23-328).
T2 sequence (looked up) 1: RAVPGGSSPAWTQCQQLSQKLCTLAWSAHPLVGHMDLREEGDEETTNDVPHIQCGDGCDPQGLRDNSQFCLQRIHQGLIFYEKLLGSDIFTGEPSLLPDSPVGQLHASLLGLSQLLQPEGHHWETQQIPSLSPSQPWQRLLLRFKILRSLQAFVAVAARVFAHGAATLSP
T2 sequence (looked up) 2: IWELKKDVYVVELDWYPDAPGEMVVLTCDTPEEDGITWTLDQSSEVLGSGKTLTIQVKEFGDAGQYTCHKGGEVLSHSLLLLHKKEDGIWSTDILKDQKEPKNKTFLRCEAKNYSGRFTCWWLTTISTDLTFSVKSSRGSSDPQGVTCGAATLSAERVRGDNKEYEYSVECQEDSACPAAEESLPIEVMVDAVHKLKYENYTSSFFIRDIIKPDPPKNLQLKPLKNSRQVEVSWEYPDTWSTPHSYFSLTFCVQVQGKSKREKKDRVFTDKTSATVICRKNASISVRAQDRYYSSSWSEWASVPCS
The experiment is described as follows: cell-based or functional assay.

Experiment [4] deals with T3, human FcRn (Acro, Catalog No. FCM-H5286) (human, UniProt P55899 24-297; P61769 21-119).
T3 construct: Bought protein
The experiment in a line: ForteBio Octet RED96 BLI, biotinylated antibody on SA sensor, FcRn in solution, 1:1 model. As to the method: First, the 17D1 humanized antibody, 17D1-YTE, and Gmab (guselkumab) prepared as described above were labeled with biotin, with the molar ratio of antibody to biotin being 1:3. The biotin was removed using a desalting column and the labeled samples were re-measured and stored for later use.
(§2) An appropriate amount of SA sensor (Fortebio, Catalog No. 18-5019) was soaked in the analysis buffer for 30 min. The biotinylated 17D1 humanized antibody, 17D1-YTE, and Gmab were diluted to 100 nM, and human FcRn (Acro, Catalog No. FCM-H5286) was serially two-fold diluted to 5 concentrations (5, 2.5, 1.25, 0.625, 0.3125 μg/mL). The sensor was first equilibrated in the analysis buffer for 120 s. Then the biotinylated antibodies were loaded on the SA sensor for 100 s of immobilization, and the sensor was equilibrated for another 120 s after immobilization. After the baseline was stabilized, the serially diluted FcRns binded to the sensors with the same antibody immobilization level. After 100 s for binding, the sensors were equilibrated in analysis buffer for 120 s to measure the binding and dissociation. The experimental data were analyzed using a 1:1 model.

Experiment [5] concerns the target T4, human IL-12 (ACRO Biosystems, Cat #IL2-H4210) (human, UniProt P29459 23-219; P29460 23-328).
T4 construct: Bought protein
T4 sequence (looked up) 1: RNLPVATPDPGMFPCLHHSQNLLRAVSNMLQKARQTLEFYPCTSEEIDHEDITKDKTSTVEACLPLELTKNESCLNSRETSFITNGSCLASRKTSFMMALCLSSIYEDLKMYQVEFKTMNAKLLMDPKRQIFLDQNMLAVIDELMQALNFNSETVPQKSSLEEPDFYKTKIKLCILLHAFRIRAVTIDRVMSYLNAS
T4 sequence (looked up) 2: T2 sequence (looked up) 2
The experiment in a line: ForteBio BLI, antibody loaded on AHQ sensor. As to the method: as §1
(§3) The equilibrium dissociation constant (KD) for binding of the above 17D1 humanized antibody and 17D1-YTE antibody of the present invention to human interleukin protein human IL-12 (ACRO Biosystems, Cat #IL2-H4210) or human IL-12p40 (ACRO Biosystems, Cat #NK2-H52H7) of the same family was measured by biological optical interferometry (ForteBio) (Table 18).

In experiment [6] the target is T5, human IL-12p40 (ACRO Biosystems, Cat #NK2-H52H7) (human, UniProt P29460 23-328).
T5 construct: Bought protein
T5 sequence (looked up): T2 sequence (looked up) 2
The experiment is described as follows: ForteBio BLI, antibody loaded on AHQ sensor. As to the method: as §1, §3

Experiment [7] has as its target T3, human FcRn (Acro, Catalog No. FCM-H5286). The experiment is described as follows: ForteBio Octet RED96 BLI, biotinylated antibody on SA sensor. On the procedure: In this assay, the ForteBio Octet RED96 System was used to detect the kinetic constant (KD) for binding of 17D1 humanized antibody and 17D1-YTE to human FcRn (Acro, Catalog No. FCM-H5286). The affinity of 17D1-YTE to human FcRn was three times those of 17D1 humanized antibody and reference antibody Gmab.
as §2

T3 sequence (P55899 24-297 limits assumed, chain 1 of 2): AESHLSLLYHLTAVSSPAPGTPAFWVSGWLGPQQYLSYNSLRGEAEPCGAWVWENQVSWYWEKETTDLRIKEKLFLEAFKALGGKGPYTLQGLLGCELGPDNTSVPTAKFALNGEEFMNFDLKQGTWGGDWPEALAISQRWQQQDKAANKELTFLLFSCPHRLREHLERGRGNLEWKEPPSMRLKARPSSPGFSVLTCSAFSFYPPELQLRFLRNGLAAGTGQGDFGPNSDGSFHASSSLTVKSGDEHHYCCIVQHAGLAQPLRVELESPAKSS
T3 sequence (P61769 21-119 limits assumed, chain 2 of 2): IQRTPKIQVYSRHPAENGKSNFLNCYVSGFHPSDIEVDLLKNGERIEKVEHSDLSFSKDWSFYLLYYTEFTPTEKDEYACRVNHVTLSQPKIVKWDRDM

B1: guselkumab (antibody)
chain 1: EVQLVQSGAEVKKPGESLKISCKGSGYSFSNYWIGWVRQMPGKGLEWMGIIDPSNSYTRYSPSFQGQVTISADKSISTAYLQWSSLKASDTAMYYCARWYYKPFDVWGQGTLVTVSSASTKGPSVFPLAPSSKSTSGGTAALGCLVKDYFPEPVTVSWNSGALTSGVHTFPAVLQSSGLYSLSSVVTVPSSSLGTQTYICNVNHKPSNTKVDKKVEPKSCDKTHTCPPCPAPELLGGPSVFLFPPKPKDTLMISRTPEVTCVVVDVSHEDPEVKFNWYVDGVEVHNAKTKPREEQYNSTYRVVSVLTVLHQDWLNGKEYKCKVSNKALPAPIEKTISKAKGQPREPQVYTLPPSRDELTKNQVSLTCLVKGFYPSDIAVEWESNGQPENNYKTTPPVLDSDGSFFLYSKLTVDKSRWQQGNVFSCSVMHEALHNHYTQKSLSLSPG
chain 2: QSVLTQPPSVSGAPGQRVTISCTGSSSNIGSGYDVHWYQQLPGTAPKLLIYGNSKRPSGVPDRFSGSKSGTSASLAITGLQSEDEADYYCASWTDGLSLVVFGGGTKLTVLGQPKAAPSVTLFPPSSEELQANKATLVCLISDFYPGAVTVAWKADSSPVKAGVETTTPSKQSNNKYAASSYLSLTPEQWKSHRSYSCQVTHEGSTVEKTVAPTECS
As for B1, in experiment [1], binding was characterised by a dissociation constant (Kd) of 0.941 nM, the Response worked out at 0.284, the koff (usually the rate constant with which the complex falls apart) is 5.8e-05 s⁻¹ and the kon (commonly the rate constant with which the complex forms) stood at 61600 M⁻¹ s⁻¹. Besides, in experiment [2], the Kd (usually the constant that tells how readily two partners part at equilibrium) was determined as 1.04 nM, the koff is 0.00012 s⁻¹ and the kon was determined as 115000 M⁻¹ s⁻¹. In experiment [3], the “IC50 (inhibition of IL-23-induced IL-17 secretion in mouse splenic lymphocytes, IL-17 ELISA)” value was 0.124 µg/mL. Besides, in experiment [4], the Kd worked out at 13.2 nM, the koff stood at 0.0148 s⁻¹ and the kon is 1.12e+06 M⁻¹ s⁻¹.

B2: 17D1 humanized antibody (antibody, human IgG1, kappa)
heavy: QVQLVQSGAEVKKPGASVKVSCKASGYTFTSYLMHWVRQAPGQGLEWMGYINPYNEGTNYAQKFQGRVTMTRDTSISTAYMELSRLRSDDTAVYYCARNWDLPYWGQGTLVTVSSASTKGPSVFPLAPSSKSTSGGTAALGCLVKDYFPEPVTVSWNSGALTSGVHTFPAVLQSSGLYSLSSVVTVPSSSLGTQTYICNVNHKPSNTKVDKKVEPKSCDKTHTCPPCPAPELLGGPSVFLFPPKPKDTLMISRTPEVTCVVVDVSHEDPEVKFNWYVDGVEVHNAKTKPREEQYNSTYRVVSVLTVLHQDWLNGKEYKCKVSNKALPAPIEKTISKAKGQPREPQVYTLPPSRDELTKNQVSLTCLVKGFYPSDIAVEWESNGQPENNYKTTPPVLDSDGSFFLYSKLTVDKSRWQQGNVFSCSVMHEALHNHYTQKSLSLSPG
light: DIQMTQSPSSLSASVGDRVTITCRASQSISDYLHWYQQKPGKAPKLLIKYASQSMSGVPSRFSGSGSGSDFTLTISSLQPEDFATYYCQQGHSFPFTFGQGTKLEIKRTVAAPSVFIFPPSDEQLKSGTASVVCLLNNFYPREAKVQWKVDNALQSGNSQESVTEQDSKDSTYSLSSTLTLSKADYEKHKVYACEVTHQGLSSPVTKSFNRGEC
notes: Biotinylated for the FcRn assay; also called humanized antibody 17D1; copies: 2 + 2
For the molecule B2, in experiment [1], the Kd was 1.67 nM, the Response worked out at 0.215, the koff was 8.44e-05 s⁻¹ and the kon turned out to be 50400 M⁻¹ s⁻¹. Further, in experiment [2], the affinity, expressed as Kd, was 1.75 nM; the dissociation rate constant (koff) was 0.000164 s⁻¹; the kon was found to be 93700 M⁻¹ s⁻¹. Further, in experiment [3], the “IC50 (inhibition of IL-23-induced IL-17 secretion in mouse splenic lymphocytes, IL-17 ELISA)” value was 0.113 µg/mL. The binding result in experiment [5] was “no binding (tested: 100 nM)”. Moreover, the binding result in experiment [6] is recorded as “no binding (tested: 100 nM)”. Besides, in experiment [4], the Kd was 12.3 nM, the koff turned out to be 0.0141 s⁻¹ and the kon stood at 1.15e+06 M⁻¹ s⁻¹.

B3: 17D1-YTE (antibody, human IgG1, kappa)
heavy: QVQLVQSGAEVKKPGASVKVSCKASGYTFTSYLMHWVRQAPGQGLEWMGYINPYNEGTNYAQKFQGRVTMTRDTSISTAYMELSRLRSDDTAVYYCARNWDLPYWGQGTLVTVSSASTKGPSVFPLAPSSKSTSGGTAALGCLVKDYFPEPVTVSWNSGALTSGVHTFPAVLQSSGLYSLSSVVTVPSSSLGTQTYICNVNHKPSNTKVDKKVEPKSCDKTHTCPPCPAPELLGGPSVFLFPPKPKDTLYITREPEVTCVVVDVSHEDPEVKFNWYVDGVEVHNAKTKPREEQYNSTYRVVSVLTVLHQDWLNGKEYKCKVSNKALPAPIEKTISKAKGQPREPQVYTLPPSRDELTKNQVSLTCLVKGFYPSDIAVEWESNGQPENNYKTTPPVLDSDGSFFLYSKLTVDKSRWQQGNVFSCSVMHEALHNHYTQKSLSLSPG
light: B2 light
notes: Biotinylated for the FcRn assay; also called 17D1-YTE antibody; copies: 2 + 2
For B3, in experiment [1], the dissociation constant (Kd) worked out at 0.37 nM, the Response was 0.207, the koff turned out to be 2.16e-05 s⁻¹ and the kon turned out to be 58400 M⁻¹ s⁻¹. In addition, in experiment [2], the affinity, expressed as Kd, was 0.611 nM; the koff turned out to be 5.69e-05 s⁻¹; the kon was 93100 M⁻¹ s⁻¹. For the same molecule, in experiment [3], the “IC50 (inhibition of IL-23-induced IL-17 secretion in mouse splenic lymphocytes, IL-17 ELISA)” value turned out to be 0.114 µg/mL. Further, the binding result in experiment [5] is “no binding (tested: 100 nM)”. The binding result in experiment [6] is listed as “no binding (tested: 100 nM)”. Also, in experiment [4], the affinity, expressed as Kd, was 3.34 nM; the koff came to 0.0033 s⁻¹; the kon was determined as 988000 M⁻¹ s⁻¹. Moreover, the “fold affinity against 17D1 humanized antibody and Gmab” value in experiment [7] was determined as 3 fold.
